Consider four molecules from publication doi:10.1101/2025.05.28.656676 (bioRxiv, 2025).

To fix the notation:
B1: CHIP E3 ubiquitin ligase (enzyme, human, UniProt Q9UNE7 1-303, looked up)
chain: MKGKEEKEGGARLGAGGGSPEKSPSAQELKEQGNRLFVGRKYPEAAACYGRAITRNPLVAVYYTNRALCYLKMQQHEQALADCRRALELDGQSVKAHFFLGQCQLEMESYDEAIANLQRAYSLAKEQRLNFGDDIPSALRIAKKKRWNSIEERRIHQESELHSYLSRLIAAERERELEECQRNHEGDEDDSHVRAQQACIEAKHDKYMADMDELFSQVDEKRKKRDIPDYLCGKISFELMREPCITPSGITYDRKDIEEHLQRVGHFDPVTRSPLTQEQLIPNLAMKEVIDAFISENGWVEDY
B2: MBP-tagged glucocorticoid receptor ligand-binding domain (MBP-GR LBD, F602S, 520-777) (domain or fragment, UniProt P04150 520-777, looked up)
chain: IVPATLPQLTPTLVSLLEVIEPEVLYAGYDSSVPDSTWRIMTTLNMLGGRQVIAAVKWAKAIPGFRNLHLDDQMTLLQYSWMSLMAFALGWRSYRQSSANLLCFAPDLIINEQRMTLPCMYDQCKHMLYVSSELHRLQVSYEEYLCMKTLLLLSSVPKDGLKSQELFDEIRMTYIKELGKAIVKREGNSSQNWQRFYQLTKLLDSMHEVVENLLNYCFQTFLDKTMSIEFPEMLAEIITNQIPKYSNGNIKKLLFHQK
B3: p23 (natural protein, human)
chain: MQPASAKWYDRRDYVFIEFCVEDSKDVNVNFEKSKLTFSCLGGSDNFKHLNEIDLFHCIDPNDSKHKRTDRSILCCLRKGESGQSWPRLTKERAKLNWLSVDFNNWKDWEDDSDEDMSNFDRFSEMMNNMGGDEDVDLPEVDGADDDSQDSDDEKMPDLE
B4: MBP-tagged glucocorticoid receptor DNA binding domain, hinge and ligand binding domain (MBP-GR DBD-LBD, 418-777, F602S) (domain or fragment, UniProt P04150 418-777, looked up)
chain: PKLCLVCSDEASGCHYGVLTCGSCKVFFKRAVEGQHNYLCAGRNDCIIDKIRRKNCPACRYRKCLQAGMNLEARKTKKKIKGIQQATTGVSQETSENPGNKTIVPATLPQLTPTLVSLLEVIEPEVLYAGYDSSVPDSTWRIMTTLNMLGGRQVIAAVKWAKAIPGFRNLHLDDQMTLLQYSWMSLMAFALGWRSYRQSSANLLCFAPDLIINEQRMTLPCMYDQCKHMLYVSSELHRLQVSYEEYLCMKTLLLLSSVPKDGLKSQELFDEIRMTYIKELGKAIVKREGNSSQNWQRFYQLTKLLDSMHEVVENLLNYCFQTFLDKTMSIEFPEMLAEIITNQIPKYSNGNIKKLLFHQK

For assay [1], the target named is T1, Hsp90a (wild-type Hsp90) (human, UniProt P07900 1-732). Briefly: cryo-EM structure.
Assay [2] concerns the target T1, Hsp90a (wild-type Hsp90). The experiment in a line: SEC.
For assay [3], the target named is D93N Hsp90 (human, UniProt P07900 1-732, D93N). Briefly: pull-down.
In assay [4] the target is Hop (human, UniProt P31948 1-543). Briefly: pull-down.
In assay [5] the target is B2. The experiment in a line: SEC. Background: Size exclusion chromatography separates by hydrodynamic size, large species first.

Consider B1, for which, in assay [1], the binding result is reported as “binds”.
With B2, the binding result in assay [2], in assay [3] and in assay [4] was “binds” throughout.
In the case of B3, the binding result in assay [5] and in assay [1] was “binds” throughout.
As to B4, the binding result in assay [1] was “binds”.
